Reduction of the interaction on addition of HeLa total cellular extract data for 1 substance are collected here from PMC2651774.

For this assay, the target named is GST-CR3 (HAdV-5 E1A residues 139–204 fused to GST) (human adenovirus type 5 (HAdV-5)) (UniProt P03255). Description: pull-down.
GST-CR3 (HAdV-5 E1A residues 139–204 fused to GST) (human adenovirus type 5 (HAdV-5)), sequence (P03255 139-204): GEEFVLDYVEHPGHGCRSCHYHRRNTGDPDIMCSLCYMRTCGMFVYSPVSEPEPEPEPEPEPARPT

Full-length, purified FLAG-tagged CBP (CREB-binding protein), Q92793 1-2442 (natural protein), sequence (Q92793 whole entry): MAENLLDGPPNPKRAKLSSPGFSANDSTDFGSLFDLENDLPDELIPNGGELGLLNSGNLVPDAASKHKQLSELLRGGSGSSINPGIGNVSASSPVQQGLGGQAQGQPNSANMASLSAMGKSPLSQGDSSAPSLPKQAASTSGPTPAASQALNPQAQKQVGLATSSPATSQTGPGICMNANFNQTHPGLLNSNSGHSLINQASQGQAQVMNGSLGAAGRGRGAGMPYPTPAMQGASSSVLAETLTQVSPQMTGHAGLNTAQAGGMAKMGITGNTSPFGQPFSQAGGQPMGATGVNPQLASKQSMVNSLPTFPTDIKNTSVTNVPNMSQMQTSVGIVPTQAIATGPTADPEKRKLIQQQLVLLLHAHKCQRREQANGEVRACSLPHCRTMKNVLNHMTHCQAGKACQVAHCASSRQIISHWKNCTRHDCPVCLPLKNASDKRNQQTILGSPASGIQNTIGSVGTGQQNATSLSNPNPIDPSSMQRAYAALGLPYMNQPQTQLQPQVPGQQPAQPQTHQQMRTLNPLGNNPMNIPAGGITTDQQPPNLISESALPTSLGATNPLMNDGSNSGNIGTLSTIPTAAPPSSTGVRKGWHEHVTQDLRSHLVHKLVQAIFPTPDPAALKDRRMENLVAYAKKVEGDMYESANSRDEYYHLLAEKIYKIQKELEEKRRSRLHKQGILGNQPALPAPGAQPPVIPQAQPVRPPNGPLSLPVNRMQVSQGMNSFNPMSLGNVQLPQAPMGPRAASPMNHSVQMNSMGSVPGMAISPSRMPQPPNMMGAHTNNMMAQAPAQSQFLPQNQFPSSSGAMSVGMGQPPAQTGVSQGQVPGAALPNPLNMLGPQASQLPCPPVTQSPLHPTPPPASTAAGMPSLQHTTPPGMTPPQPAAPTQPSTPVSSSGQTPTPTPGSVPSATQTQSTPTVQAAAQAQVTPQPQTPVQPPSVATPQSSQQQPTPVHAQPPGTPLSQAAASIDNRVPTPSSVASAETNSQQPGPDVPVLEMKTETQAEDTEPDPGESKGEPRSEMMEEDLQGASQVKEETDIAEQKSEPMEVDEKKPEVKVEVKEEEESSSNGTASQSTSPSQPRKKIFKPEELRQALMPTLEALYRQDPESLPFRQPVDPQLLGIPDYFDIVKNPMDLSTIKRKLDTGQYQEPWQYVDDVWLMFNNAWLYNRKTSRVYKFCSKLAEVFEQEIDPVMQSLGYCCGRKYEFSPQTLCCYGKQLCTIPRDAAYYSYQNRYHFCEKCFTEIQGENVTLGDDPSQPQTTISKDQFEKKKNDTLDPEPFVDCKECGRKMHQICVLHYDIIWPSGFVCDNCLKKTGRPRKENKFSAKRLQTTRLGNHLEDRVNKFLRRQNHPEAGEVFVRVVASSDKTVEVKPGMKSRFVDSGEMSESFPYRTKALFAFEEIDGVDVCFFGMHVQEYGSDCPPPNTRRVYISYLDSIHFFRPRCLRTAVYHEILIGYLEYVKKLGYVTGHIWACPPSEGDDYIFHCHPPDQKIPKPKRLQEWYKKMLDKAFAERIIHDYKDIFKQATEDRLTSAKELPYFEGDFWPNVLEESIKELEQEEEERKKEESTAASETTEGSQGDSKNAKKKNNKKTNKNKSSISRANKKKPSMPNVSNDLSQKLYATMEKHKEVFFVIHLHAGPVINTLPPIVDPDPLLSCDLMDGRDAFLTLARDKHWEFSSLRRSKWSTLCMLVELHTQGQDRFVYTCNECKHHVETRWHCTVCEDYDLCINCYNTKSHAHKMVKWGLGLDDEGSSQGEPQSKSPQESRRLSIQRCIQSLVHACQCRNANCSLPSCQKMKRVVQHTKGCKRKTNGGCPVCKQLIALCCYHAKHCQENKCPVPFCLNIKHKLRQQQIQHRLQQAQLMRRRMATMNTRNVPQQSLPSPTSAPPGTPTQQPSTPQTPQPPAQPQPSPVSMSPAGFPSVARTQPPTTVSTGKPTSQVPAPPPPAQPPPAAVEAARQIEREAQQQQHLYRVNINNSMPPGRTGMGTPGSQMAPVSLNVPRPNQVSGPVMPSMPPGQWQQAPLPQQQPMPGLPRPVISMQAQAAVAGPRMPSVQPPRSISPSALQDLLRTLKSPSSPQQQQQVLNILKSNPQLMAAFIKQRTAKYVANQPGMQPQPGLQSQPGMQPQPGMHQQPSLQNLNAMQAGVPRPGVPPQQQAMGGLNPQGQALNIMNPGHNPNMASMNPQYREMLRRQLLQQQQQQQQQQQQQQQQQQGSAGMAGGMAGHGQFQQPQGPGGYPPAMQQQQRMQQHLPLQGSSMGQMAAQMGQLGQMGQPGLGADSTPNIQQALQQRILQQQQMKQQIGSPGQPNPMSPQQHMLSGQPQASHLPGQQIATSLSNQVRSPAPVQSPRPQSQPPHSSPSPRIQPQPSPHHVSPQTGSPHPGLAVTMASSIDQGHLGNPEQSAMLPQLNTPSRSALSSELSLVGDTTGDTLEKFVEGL

For the substance “Full-length, purified FLAG-tagged CBP (CREB-binding protein), Q92793 1-2442 (natural protein)”, the reduction of the interaction on addition of HeLa total cellular extract was found to be 50%.
